Experimental data from PMC3482105.

What was measured:
[1] = molecular target: GCaMP2-LIA; experiment: crystal structure
[2] = molecular target: GCaMP5H; experiment: crystal structure

| stoichiometry N [1] | stoichiometry N [2] | Substance |
| --- | --- | --- |
| 2 |  | GCaMP2-LIA |
|  | 2 | GCaMP5H |
